Earlier results as cited in paper PMC6104694.
Where two headings read alike, the source gives them in different places.

Assays:
[1] = biological target: presenilin-1 C-terminal fragment 23 amino acid CTF (Homo sapiens) (UniProt P49768)
[2] = biological target: presenilin-1 C-terminal fragment 23 amino acid CTF (Homo sapiens) (UniProt P49768); remark: listed apart in the source

Chain of KChIP3 (calsenilin) (Q9Y2W7 whole entry): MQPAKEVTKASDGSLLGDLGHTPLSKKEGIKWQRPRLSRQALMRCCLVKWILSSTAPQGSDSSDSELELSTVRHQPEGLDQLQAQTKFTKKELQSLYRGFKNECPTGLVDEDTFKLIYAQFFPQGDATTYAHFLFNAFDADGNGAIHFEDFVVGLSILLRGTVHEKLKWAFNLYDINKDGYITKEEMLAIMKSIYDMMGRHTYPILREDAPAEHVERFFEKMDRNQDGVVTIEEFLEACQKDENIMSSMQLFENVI

KChIP3 (calsenilin) (from UniProt Q9Y2W7)
Kd [1]: 183 µM | Kd [2]: 0.6 µM
